The text below walks through data of the nanobody polyreactivity screen of Harvey et al. (2022).

This series is described as follows: yeast display, Sf9 membrane polyspecificity reagent, FACS + sequencing; frameworks hold sequencing errors. The essentials: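 Galactose-induced (36–48 hours) yeast carrying a synthetic nanobody display library were exposed to 10% biotinylated, detergent-solubilized Sf9 membrane reagent at 4 °C for 1 hour. FACS followed streptavidin microbead enrichment, using low and high (top ~1%) gates for expression (anti-HA) and reagent binding (streptavidin). Colony PCR, MiSeq 2 × 250 sequencing and CDR-length filtering followed. Labels for polyreactivity reflect the gate of origin.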
With “QVQLVESGGGLVQAGGSLRLSCAASGSIFSINTMGWYRQAPGKERELVAAITRSGSGTYYADSVKGRFTISRDNAKNTVYLQMNSLKPEDTAVYYCNADDWVGRSLRYDYWGQGTQVTVSS”, the “polyreactivity (PSR sort gate)” value is reported as “low polyreactivity”.

For “QVQLVESGGGLVQAGGSLRLSCAASGSIFSKNAMGWYRQAPGKERELVAAITWSGGRTYYADSVKGRFTISRDNAKNTVFLQMNSLKPEDTAVYYCAAVSRVRYYLQTYDSWGQGTQVTVSS”, the “polyreactivity (PSR sort gate)” value is on record as “high polyreactivity”.

As to “QVQLVESGGGLVQAGGSLRLSCAASGSIFSLNAMGWYRPAPGKERELVAVINRSGTRTYYADSVKGRFTISRDNAKNTVYLQMNSLKPEDTAVYYCNAQPSSGSDAQNEYWGQGTQVTVSS”, the “polyreactivity (PSR sort gate)” value was “high polyreactivity”.

Turning to “QVQLVESGGGLVQAGGSLRLSCAASGSIFSLNAMGWYRQAPGKEREFVAASGGGSTYYADSVKGRFTISRDNAKNTVYLQMNSLKPEDCAVYYCAARVLTDELDYWGQGTQVTVSS”, the “polyreactivity (PSR sort gate)” value is “low polyreactivity”.

For the sequence “QVQLVESGGGLVQAGGSLRLSCAASGSIFSLYAMGWYRQAPGKERELVAAISSSGTSTYYADSVKGRFTISRDNAKNTVYLQMYSLKTEDTAVYYCNAYRRRATYNGDYWGQGTQVTVSS”, the “polyreactivity (PSR sort gate)” value is listed as “high polyreactivity”.

In the case of “QVQLVESGGGLVQAGGSLRLSCAASGSIFSLYDMGWYRQAPGKERELVASITWSGGSTDYADSVKGRFTISRDNAKNTVYLQMNSLKPEDTAVYYCAAYSYTSIFDYWGQGTQVTVSS”, the “polyreactivity (PSR sort gate)” value was “low polyreactivity”.

Consider “QVQLVESGGGLVQAGGSLRLSCAASGSIFSLYVMGWYRQAPGKERELGAAITSGGRTNYADSVKGRFTISRDNAKNTVYLLMNSLKPEDTAVYDCAARFPSRYGRYGYWGQGTQVTVSS”, for which the “polyreactivity (PSR sort gate)” value is recorded as “high polyreactivity”.

For the sequence “QVQLVESGGGLVQAGGSLRLSCAASGSIFSPNAMGWNRQAPGKERELVAAISRRGGRTYYADSVKGRFTISRDNAKNTVYFQMNSLKPEDTAVYYCNAVWYSDTYTNPQYDYWGQGTQVTVSS”, the “polyreactivity (PSR sort gate)” value was “high polyreactivity”.

In the case of “QVQLVESGGGLVQAGGSLRLSCAASGSIFSPYAMGWYRQAPGKARELVAVITRSGGRTYYADSVKGRFTISRDNAKNTVYLQMNSLKPEDTAVYYCAATPKSWSSSTRDYWGQGTQVTVSS”, the “polyreactivity (PSR sort gate)” value was “high polyreactivity”.

Turning to “QVQLVESGGGLVQAGGSLRLSCAASGSIFSPYAMGWYRQAPGKERELVAAISDRGGSTYYADSVKVRFTISRDNAKNTVYLQMNSLKPEDTAVYYCAARVGYAFRYYYWGQGTQVTVSS”, the “polyreactivity (PSR sort gate)” value is recorded as “high polyreactivity”.

As to “QVQLVESGGGLVQAGGSLRLSCAASGSIFSQNAMGWYRQAPGKERELVAAITSSGGNTYADSVKGRFTISRDNAKNTVYLQMNRLKPEDTAVYYCAAGHLVILNRSEYYYWGQGSQVTVSS”, the “polyreactivity (PSR sort gate)” value is “low polyreactivity”.

Take “QVQLVESGGGLVQAGGSLRLSCAASGSIFSQYAMGWSRQAPGKERELVAAISSSGDSTNYADSVKGRFTISRDNAKNTVYLQMNSLKPEDTAVYYCAADFDWFIWGYDYWGQGTQVTVSS”: the “polyreactivity (PSR sort gate)” value is “low polyreactivity”.

Take “QVQLVESGGGLVQAGGSLRLSCAASGSIFSQYAMGWYRQAPGTERDFVAAINWSGGRTRYADSVKGRFTISRDNAKNTVYLQMNSLKPEDTAVYYCAKVYSLYSYSGRYDYWGQGTQVTVSS”: the “polyreactivity (PSR sort gate)” value was “high polyreactivity”.

Consider “QVQLVESGGGLVQAGGSLRLSCAASGSIFSRNAMGWYRQEPGKEREFVAAISYSSGSTYYADSVNGRFTISRDNAKNTVYLQMNSLKPEDTAVYYCAADTTKLQGVEGDYWGQGTQVTVSS”, for which the “polyreactivity (PSR sort gate)” value was “low polyreactivity”.

As for “QVQLVESGGGLVQAGGSLRLSCAASGSIFSRYAMGWYRQAPGKERELVAAISWRGVSTYYADSVKGRFTISRDNAKNTVYLQMNSLKPEDTAVYYCAADTGRYLDSNYWGQGTQVTVSS”, the “polyreactivity (PSR sort gate)” value is on record as “high polyreactivity”.

Regarding “QVQLVESGGGLVQAGGSLRLSCAASGSIFSRYAMGWYRQAPGNERELVAAITSGGSTKYADSVKGRFTISRDNAKNTVYLQMNSLKPEDTAVYYCNADRRFRKYPFGYWGQGTQVTVSS”, the “polyreactivity (PSR sort gate)” value is reported as “high polyreactivity”.
